Assay results published in US20260210939A1, “MODIFIED OLFACTORY RECEPTORS” (GIVAUDAN SA, priority 2022, published 2026).
Where two headings read alike, the source gives them in different places.

What was measured:
OR2T4 = biological target: T1, OR2T4 (Homo sapiens, UniProt Q8NH00, D328E/G331D/M330K); conditions: for ligand identification in sulfur odorant screen: OR2T4 with optimized C-terminus SEQ ID NO: 86; for % of the activation by the optimized sequence RNKEVKDALKRLLKRKCC: OR2T4 variant
T1 sequence (Q8NH00 with tags, fused parts or gaps D328E/M330K/G331D): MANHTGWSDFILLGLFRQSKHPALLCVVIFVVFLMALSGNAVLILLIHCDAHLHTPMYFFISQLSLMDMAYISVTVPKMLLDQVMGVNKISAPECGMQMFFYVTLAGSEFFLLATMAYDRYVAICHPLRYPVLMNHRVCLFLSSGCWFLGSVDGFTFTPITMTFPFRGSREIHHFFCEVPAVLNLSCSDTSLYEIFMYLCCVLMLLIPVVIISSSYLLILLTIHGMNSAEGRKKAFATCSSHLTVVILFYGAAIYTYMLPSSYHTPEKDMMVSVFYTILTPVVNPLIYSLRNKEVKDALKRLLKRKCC

OR5A2 = biological target: T2, OR5A2 (Homo sapiens, UniProt Q8NGI9); test: CRE-luciferase assay, HEK293T cells expressing OR5A2 (wild-type / modified C-terminus); assay type: cell-based; conditions: for fold-induction of luciferase: OR5A2 variant
T2 construct: Improved functional expression of modified OR-genes containing the truncated, optimized C-terminus; expressed in transfected cells; host or cells: HEK293T with stably integrated human RTP1S(V227I) and RTP2(L220R)
T2 sequence (Q8NGI9 with tags, fused parts or gaps): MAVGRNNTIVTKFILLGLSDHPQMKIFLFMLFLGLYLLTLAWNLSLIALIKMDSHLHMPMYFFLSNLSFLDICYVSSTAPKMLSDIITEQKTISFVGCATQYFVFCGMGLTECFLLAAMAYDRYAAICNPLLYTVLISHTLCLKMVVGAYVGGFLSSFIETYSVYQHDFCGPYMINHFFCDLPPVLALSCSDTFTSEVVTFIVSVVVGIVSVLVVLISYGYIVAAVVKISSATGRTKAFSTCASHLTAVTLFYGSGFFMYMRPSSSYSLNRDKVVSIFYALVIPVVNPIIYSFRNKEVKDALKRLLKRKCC

OR7C1 = biological target: T3, OR7C1 (Homo sapiens, UniProt O76099, D296E/G302K/M297V/R299D/T295K/V126I); test: CRE-luciferase assay, HEK293T cells expressing OR7C1 (wild-type / modified C-terminus); assay type: cell-based; conditions: OR7C1 variant, 1 μM Ambermax
T3 construct: Improved functional expression of modified OR-genes containing the truncated, optimized C-terminus; expressed in transfected cells; host or cells: HEK293T stably expressing human RTP1S(V227I) and RTP2(L220R)
T3 sequence (O76099 with tags, fused parts or gaps V126I/T295K/D296E/M297V/R299D/G302K): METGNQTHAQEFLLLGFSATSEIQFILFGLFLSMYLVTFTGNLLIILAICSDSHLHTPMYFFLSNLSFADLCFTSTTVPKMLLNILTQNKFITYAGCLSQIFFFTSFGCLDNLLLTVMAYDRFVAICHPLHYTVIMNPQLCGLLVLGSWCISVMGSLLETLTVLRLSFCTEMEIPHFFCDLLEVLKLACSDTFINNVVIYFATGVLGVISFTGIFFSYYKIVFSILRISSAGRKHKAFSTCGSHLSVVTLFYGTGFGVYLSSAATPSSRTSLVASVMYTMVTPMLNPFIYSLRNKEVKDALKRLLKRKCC
From the text: To test for possible variants of the sequence […]CC (SEQ ID NO: 86) leading to similar improved functional expression, different point mutations were introduced into the first 16 amino acids of this sequence (corresponding to […], SEQ ID NO: 10) and the variants were fused after the TM7 with OR7C1. […] The test concentrations were selected to fall into the range of partial activity of the wild-type sequence.

OR5B12 = biological target: T4, OR5B12 (Homo sapiens, UniProt Q96R08, C141R); test: CRE-luciferase assay, HEK293T cells expressing OR5B12 (wild-type / modified C-terminus); assay type: cell-based; conditions: OR5B12 variant
T4 construct: Improved functional expression of modified OR-genes containing the truncated, optimized C-terminus; expressed in transfected cells; host or cells: HEK293T stably expressing human RTP1S(V227I) and RTP2(L220R)
T4 sequence (Q96R08 with tags, fused parts or gaps C141R): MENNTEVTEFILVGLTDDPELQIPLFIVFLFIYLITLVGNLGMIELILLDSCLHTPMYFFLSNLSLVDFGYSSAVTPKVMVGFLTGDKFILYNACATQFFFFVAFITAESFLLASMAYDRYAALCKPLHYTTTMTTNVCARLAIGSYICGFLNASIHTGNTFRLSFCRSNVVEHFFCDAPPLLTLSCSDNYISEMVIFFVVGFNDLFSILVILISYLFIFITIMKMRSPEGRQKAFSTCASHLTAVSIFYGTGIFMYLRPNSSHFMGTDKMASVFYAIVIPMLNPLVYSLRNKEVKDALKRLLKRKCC

[1] = 10 μM Cyclopentanethiol, 30 μM copper
[2] = 31 μM Cyclopentanethiol, 30 μM copper
[3] = 4 μM 2-methyl-3-tetrahydrofuranethiol
[4] = 8 μM 2-methyl-3-tetrahydrofuranethiol

Molecule | % of the activation by the optimized sequence RNKEVKDALKRLLKRKCC (OR7C1) [%] | % of the activation by the optimized sequence RNKEVKDALKRLLKRKCC (OR5B12; 31 μM Hedione HC) [%] | % of the activation by the optimized sequence RNKEVKDALKRLLKRKCC (OR5B12; 62.5 μM Hedione HC) [%] | % of the activation by the optimized sequence RNKEVKDALKRLLKRKCC (OR2T4; [3]) [%] | % of the activation by the optimized sequence RNKEVKDALKRLLKRKCC (OR2T4; [4]) [%] | other results
CC1OCCC1S (centres unmarked) [2-methyl-3-tetrahydrofuranthiol, reference compound] | – | – | – | – | – | ligand identification in sulfur odorant screen (OR2T4): good ligands
CC1COCc2cc3c(cc21)C(C)(C)C(C)C3(C)C (centres unmarked) [Galaxolide, reference compound] | – | – | – | – | – | Comments on efficacy (OR5A2): No induction; Detection threshold; concentration for 2-fold induction (OR5A2; changed C-term. SEQ ID NO: 86): 0.0016 µM; Fold-improvement potency (OR5A2; changed C-term. vs wild-type): >300; Fold-improvement threshold (OR5A2; changed C-term. vs wild-type): >20000; concentration at which activation occurs (OR5A2; modified OR5A2, SEQ ID NO: 86): < 0.01 µM; Detection threshold; concentration for 2-fold induction (OR5A2; wild-type): (>>31) μM
CCCSSCCC [dipropyl disulfide, reference compound] | – | – | – | – | – | ligand identification in sulfur odorant screen (OR2T4): good ligands
CCOc1cc(C=O)ccc1O [ethyl vanillin, reference compound] | – | – | – | – | – | response of the modified receptor (OR5A2; modified OR5A2, SEQ ID NO: 86): no response
SEQ ID NO: 10 (RNKEVKDALKRLLKRK; source 1..16: note = C-terminal domain sequence) | 89.5 | 0 | 0 | – | – | % of the activation by the optimized sequence RNKEVKDALKRLLKRKCC (OR2T4; [1]): 25.3%; % of the activation by the optimized sequence RNKEVKDALKRLLKRKCC (OR2T4; [2]): 25.2%
SEQ ID NO: 114 (RNKEVKRAIKRLLKRKCC; source 1..18: note = C-terminal domain sequence) | 262.4 | 317.8 | 195.1 | 108.8 | 116.6 | –
SEQ ID NO: 115 (RNKEVKKAIKRLLKRKCC; source 1..18: note = C-terminal domain sequence) | – | 349.2 | 242.5 | 103.1 | 115.2 | –
SEQ ID NO: 116 (RNKEVKRAIKRLFKRKCC; source 1..18: note = C-terminal domain sequence) | 393.9 | 433.2 | 303.9 | 63.3 | 77.0 | –
SEQ ID NO: 117 (RNKEVKKAIKRLFKRKCC; source 1..18: note = C-terminal domain sequence) | 310.7 | 435.4 | 282.5 | 96.2 | 88.2 | fold-induction of luciferase (OR5A2; muscone 0.01 μM): 0.96; fold-induction of luciferase (OR5A2; muscone 0.03 μM): 1.39; fold-induction of luciferase (OR5A2; muscone 0.10 μM): 3.49; fold-induction of luciferase (OR5A2; muscone 0.32 μM): 9.33; fold-induction of luciferase (OR5A2; muscone 1.00 μM): 19.44; fold-induction of luciferase (OR5A2; muscone 3.16 μM): 27.31; fold-induction of luciferase (OR5A2; muscone 10.00 μM): 30.34
SEQ ID NO: 118 (RNKEVKRAIRKLLKRKCC; source 1..18: note = C-terminal domain sequence) | 288.9 | 126.2 | 136.1 | 80.6 | 98.4 | –
SEQ ID NO: 121 (RNKEVKRAIKRLLKRKCR; source 1..18: note = C-terminal domain sequence) | 346.4 | 342.8 | 242.1 | 139.9 | 150.6 | –
SEQ ID NO: 122 (RNKEVKKAIKRLLKRKCR; source 1..18: note = C-terminal domain sequence) | 258.8 | 331.3 | 222.3 | 97.3 | 102.0 | –
SEQ ID NO: 133 (RNKEVKDALKRLLKRKCRR; source 1..19: note = C-terminal domain sequence) | 188.9 | – | – | 101.4 | 110.0 | –
SEQ ID NO: 149 (RNKEVKDALKRLLKRKCRRR; source 1..20: note = C-terminal domain sequence) | 265.3 | 254.8 | 231.7 | 108.0 | 135.7 | –
SEQ ID NO: 150 (RNKEVKDALKRLLKRKCRKK; source 1..20: note = C-terminal domain sequence) | 196.0 | 182.3 | 145.7 | 94.8 | 96.5 | –
SEQ ID NO: 151 (RNKEVKDALKRLLKRKCCRR; source 1..20: note = C-terminal domain sequence) | – | 240.6 | 229.5 | – | – | –
SEQ ID NO: 198 (RNKEVKDALKRLLKRKC; source 1..17: note = C-terminal domain sequence) | 137.7 | 0 | 0 | – | – | % of the activation by the optimized sequence RNKEVKDALKRLLKRKCC (OR2T4; [1]): 37.7%; % of the activation by the optimized sequence RNKEVKDALKRLLKRKCC (OR2T4; [2]): 63.5%
SEQ ID NO: 219 (RNKEVKDALKRLLKRKCCRRRR; source 1..22: note = C-terminal domain sequence) | – | 244.3 | 239.6 | – | – | –
SEQ ID NO: 220 (RNKEVKKAIKRLLKRKCCRRR; source 1..21: note = C-terminal domain sequence) | – | 1092.9 | 922.2 | 76.6 | 61.9 | –
SEQ ID NO: 221 (RNKEVKKAIKRLFKRKCCRRR; source 1..21: note = C-terminal domain sequence) | 498.6 | 1032.2 | 676.0 | 103.1 | 130.4 | –
